Experimental data reported in US20210179728A1 (OSE IMMUNOTHERAPEUTICS, published 2021).

What was measured:
[1] = biological target: T1, recombinant hSIRPa (Sino Biologicals, reference 11612-H08H) (human, UniProt P78324 31-370); experiment: ELISA on immobilized SIRPa-His, peroxidase anti-human IgG, DO 450nm [panel CD80]
T1 construct: also called SIRPa-His; human SIRPa-His; not shown: His tag (histidine tail)
Protocol: Method: For ELISA assay, recombinant hSIRPa (Sino Biologicals, Beijing, China; reference 11612-H08H) was immobilized on plastic at 0.5 μg/ml in carbonate buffer (pH9.2) and different modified anti-SIRPa antibodies were added to measure binding to SIRPa.

CTLA4-Fc = biological target: T2, CTLA4-Fc (human, UniProt P16410 36-161, limits assumed); experiment: ELISA: modified antibody (concentration on the axis) captured on SIRPa-His, then CTLA4-Fc, detected with mouse anti-human CTLA4 [panel CD80]
T2 construct: not shown: Fc; not specified
T2 sequence (P16410 36-161 limits assumed): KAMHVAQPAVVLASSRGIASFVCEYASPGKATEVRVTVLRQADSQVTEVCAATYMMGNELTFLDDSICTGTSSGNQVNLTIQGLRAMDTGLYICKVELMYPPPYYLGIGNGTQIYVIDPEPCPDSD

[2] = biological target: T1, recombinant hSIRPa (Sino Biologicals, …); experiment: SPR (Biacore); SIRPa-His immobilized on CM5 chip, antibody injected
Protocol: FIG. 2. Affinity analysis by Biacore of anti-SIRP antibodies on human SIRPa recombinant protein. SIRPa-His recombinant protein was immobilized onto a CM5 chip at 5 μg/ml (500 RU) and the indicated antibodies were added at different concentration.
Method: Recombinant hSIRPa (Sino Biologicals, Beijing, China; reference 11612-H08H) was immobilized into a CM5 sensor chip (GeHealthcare; France) at 5 μg/ml (500 RU) and antibodies were applied at different concentrations with a flow rate of 40 μl/min. Analysis was performed with a BIAcore 3000 (Biacore, GeHealthcare).

[3] = biological target: T1, recombinant hSIRPa (Sino Biologicals, …); experiment: ELISA on immobilized hSIRPa-His, anti-human IgG detection, second experiment
Protocol: (§1) Method: The binding activity of the anti-SIRPa antibodies was assessed by ELISA.

[4] = biological target: T3, recombinant hSIRPg-His (Sino Biologicals, reference 11828-H08H) (human, UniProt Q9P1W8 29-360); experiment: BLI (Blitz); SIRPg-His on Ni-NTA biosensor, antibody at 10 ug/ml or 20 ug/ml (Example 9) [B, table A]
T3 construct: also called human SIRPg-His; not shown: His tag
T3 sequence (Q9P1W8 29-360 limits assumed): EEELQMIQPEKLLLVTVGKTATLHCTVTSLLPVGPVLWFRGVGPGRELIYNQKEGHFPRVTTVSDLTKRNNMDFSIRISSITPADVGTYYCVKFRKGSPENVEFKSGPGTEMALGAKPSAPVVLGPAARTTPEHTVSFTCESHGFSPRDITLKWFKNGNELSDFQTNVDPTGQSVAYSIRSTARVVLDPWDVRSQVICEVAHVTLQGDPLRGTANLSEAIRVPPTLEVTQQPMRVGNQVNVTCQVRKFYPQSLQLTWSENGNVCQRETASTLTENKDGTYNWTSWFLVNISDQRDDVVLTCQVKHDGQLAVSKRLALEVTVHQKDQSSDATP
Protocol: (§2) FIG. 8. (A) Affinity analysis by Blitz of anti-SIRP antibodies on human SIRPg recombinant protein. SIRPg-His recombinant protein was immobilized onto a NINTA biosensor and the indicated antibodies were added at 10 μg/ml. […] (B) Binding analysis by ELISA assay of anti-SIRP antibodies on SIRPg (human SIRPg-His coating and anti-human kappa detection).
(§3) Method: This method was performed with a Blitz (Forte Bio; USA; reference C22-2 No 61010-1). Recombinant hSIRPg-His (Sino Biologicals, Beijing, China; reference 11828-H08H) was immobilized at 10 μg/ml by histidine tail into a Ni-NTA biosensor (Forte Bio; USA; reference 18-0029) for 30 seconds. Then, an anti-SIRPa antibody was associated at 20 μg/mL for 120 seconds. The dissociation of anti-SIRPa antibody was made in kinetics buffer for 120 seconds. Analysis of data was made with the Blitz pro 1.2 software, which calculated association constant (ka) and dissociation constant (kd) and determined the affinity constant KD […].

[5] = biological target: T1, recombinant hSIRPa (Sino Biologicals, …); experiment: ELISA on immobilized hSIRPa-His, anti-human IgG detection, first experiment; first experiment
Protocol: as §1

[6] = biological target: T1, recombinant hSIRPa (Sino Biologicals, …); experiment: competition ELISA on immobilized SIRPa-His; competitor biotinylated CD47-Fc at 6 ug/ml, streptavidin-peroxidase [second experiment table]
Protocol: Method: For competitive ELISA assay, recombinant hSIRPa (Sino Biologicals, Beijing, China; reference 11612-H08H) was immobilized on plastic at 0.5 μg/ml in carbonate buffer (pH9.2).

[7] = biological target: T4, recombinant hSIRPb-His (Antibodies-online, reference ABIN3077231) (human, UniProt Q5TFQ8 30-371); experiment: BLI (Blitz); SIRPb-His on Ni-NTA biosensor, antibody at 20 ug/ml [B, table A]
T4 construct: also called SIRPb-His (Blitz); not shown: His tag
T4 sequence (Q5TFQ8 30-371): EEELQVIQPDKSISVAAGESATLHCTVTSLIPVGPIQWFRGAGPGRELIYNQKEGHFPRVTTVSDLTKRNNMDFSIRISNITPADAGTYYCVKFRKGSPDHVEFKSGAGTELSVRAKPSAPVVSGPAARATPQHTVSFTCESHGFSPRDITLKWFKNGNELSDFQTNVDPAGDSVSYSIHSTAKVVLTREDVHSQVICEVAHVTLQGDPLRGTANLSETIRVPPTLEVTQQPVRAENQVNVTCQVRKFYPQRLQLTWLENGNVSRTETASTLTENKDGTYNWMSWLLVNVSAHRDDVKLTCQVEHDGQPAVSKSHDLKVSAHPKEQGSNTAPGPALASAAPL
Protocol: as §2, with “7.” for “8.”, “SIRPb” for “SIRPg”, “SIRPb-His” for “SIRPg-His”, “20” for “10”, “analysis” for “analysis by ELISA assay”, “antibodies” for “antibodies on SIRPg”
as §3, with “hSIRPb-His (Antibodies-online; USA;” for “hSIRPg-His (Sino Biologicals, Beijing, China;”, “ABIN3077231)” for “11828-H08H)”

[8] = biological target: T1, recombinant hSIRPa (Sino Biologicals, …); experiment: ELISA on immobilized hSIRPa-His, anti-human IgG detection, third experiment
Protocol: as §1

T1 sequence (P78324 31-370 limits assumed): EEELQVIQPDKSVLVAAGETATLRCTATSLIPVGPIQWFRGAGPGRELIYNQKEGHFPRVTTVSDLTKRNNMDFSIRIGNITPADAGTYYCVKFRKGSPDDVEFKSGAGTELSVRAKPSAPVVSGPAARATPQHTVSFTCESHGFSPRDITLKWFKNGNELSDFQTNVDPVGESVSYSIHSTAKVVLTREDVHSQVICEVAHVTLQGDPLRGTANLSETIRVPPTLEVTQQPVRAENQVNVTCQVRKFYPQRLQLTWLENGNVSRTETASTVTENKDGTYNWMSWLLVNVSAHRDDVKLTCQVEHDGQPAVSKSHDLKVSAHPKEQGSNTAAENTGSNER

Binder | EC50 [3] [ng/mL] | Kd [4] [nM] | koff [4] [s⁻¹] | kon [4] [M⁻¹ s⁻¹] | EC50 [5] [ng/mL] | Kd [7] [nM] | koff [7] [s⁻¹] | kon [7] [M⁻¹ s⁻¹] | EC50 [8] [ng/mL] | further results
modified anti-SIRPa HEFLB antibody with ECD of CD80 on the light chain (antibody, human IgG4 S228P, kappa, as m32, ECD of CD80; also called VH+VLprot (CD80); HEF + LB-CD80) heavy: not shown light: DVVMTQSPLSLPVTLGQPASISCRSSQSLVHSYGNTYLYWFQQRPGQSPRLLIYRVSNRFSGVPDRFSGSGSGTDFTLKISRVEAEDVGVYYCFQGTHVPYTFGGGTKVEIKRTVAAPSVFIFPPSDEQLKSGTASVVCLLNNFYPREAKVQWKVDNALQSGNSQESVTEQDSKDSTYSLSSTLTLSKADYEKHKVYACEVTHQGLSSPVTKSFNRGECGGGGSGGGGSGGGGSVIHVTKEVKEVATLSCGHNVSVEELAQTRIYWQKEKKMVLTMMSGDMNIWPEYKNRTIFDITNNLSIVILALRPSDEGTYECVVLKYEKDAFKREHLAEVTLSVKADFPTPSISDFEIPTSNIRRIICSTSGGFPEPHLSWLENGEELNAINTTVSQDPETELYAVSSKLDFNMTTNHSFMCLIKYGHLRVNQTFNWNTTKQEHFPDN | – | – | – | – | – | – | – | – | – | EC50 (read off the curve) [1]: ~8 ng/mL; binding result (CTLA4-Fc): binds
modified anti-SIRPa HEFLB antibody with ECD of CD80 on the heavy chain (antibody, human IgG4 S228P, kappa, as m25, ECD of CD80; also called VHprot+VL (CD80); VH-CD80) heavy: not shown light: DVVMTQSPLSLPVTLGQPASISCRSSQSLVHSYGNTYLYWFQQRPGQSPRLLIYRVSNRFSGVPDRFSGSGSGTDFTLKISRVEAEDVGVYYCFQGTHVPYTFGGGTKVEIKRTVAAPSVFIFPPSDEQLKSGTASVVCLLNNFYPREAKVQWKVDNALQSGNSQESVTEQDSKDSTYSLSSTLTLSKADYEKHKVYACEVTHQGLSSPVTKSFNRGEC | – | – | – | – | – | – | – | – | – | EC50 (read off the curve) [1]: ~8 ng/mL; binding result (CTLA4-Fc): binds
HFLA (antibody, human IgG4 S228P, kappa, V domains shown, humanized 18D5 variant) VH: EVQLVQSGAEVKKPGESLRISCKASGYSFTSYWVHWVRQMPGKGLEWMGNIDPSDSDTHYSPSFQGHVTLSVDKSISTAYLQLSSLKASDTAMYYCVRGGTGTMAYFAYWGQGTLVTVSS VL: DVVMTQSPLSLPVTLGQPASISCRSSQSLVHSYGNTYLYWYQQRPGQSPRLLIYRVSNRFSGVPDRFSGSGSGTDFTLKISRVEAEDVGVYFCFQGTHVPYTFGGGTKVEIKR | 4.61 | 47.6 | 0.0118 | 248000 | 5.1 | 25.8 | 0.00192 | 74500 | – | Kd [2]: 0.217 nM; koff [2]: 0.000186 s⁻¹; kon [2]: 857000 M⁻¹ s⁻¹; IC50 [6]: 146 ng/mL
HCLB (antibody, human IgG4 S228P, kappa, V domains shown, humanized 18D5 variant; also called humanized 18D5 variant HCLB) VH: EVQLVQSGAEVKKPGESLRISCKASGYSFTSYWVHWVRQMPGKGLEWMGNIDPSDSDTHYSPSFQGHVTLSVDKSISTAYLQLSSLKASDTAMYYCVRGGTGTMAWFAYWGQGTLVTVSS VL: DVVMTQSPLSLPVTLGQPASISCRSSQSLVHSYGNTYLYWFQQRPGQSPRLLIYRVSNRFSGVPDRFSGSGSGTDFTLKISRVEAEDVGVYYCFQGTHVPYTFGGGTKVEIKR | 5.59 | – | – | – | – | – | – | – | – | –
HBLA (antibody, human IgG4 S228P, kappa, V domains shown, humanized 18D5 variant; also called humanized 18D5 variant HBLA) VH: EVQLVQSGAEVKKPGESLRISCKASGYSFTSYWVHWVRQMPGKGLEWMGNIDPSDSDTHYNQKFKDHVTLSVDKSISTAYLQLSSLKASDTAMYYCVRGGTGTMAWFAYWGQGTLVTVSS VL: DVVMTQSPLSLPVTLGQPASISCRSSQSLVHSYGNTYLYWYQQRPGQSPRLLIYRVSNRFSGVPDRFSGSGSGTDFTLKISRVEAEDVGVYFCFQGTHVPYTFGGGTKVEIKR | – | – | – | – | – | – | – | – | 2.68 | –
HALA (antibody, human IgG4 S228P, kappa, V domains shown, humanized 18D5 variant; also called humanized 18D5 variant HALA) VH: EVQLVQSGAEVKKPGESLRISCKASGYTFTSYWVHWVRQMPGKGLEWIGNIDPSDSDTHYNQKFKDHVTLSVDKSISTAYLQLSSLKASDTAMYYCVRGGTGTMAWFAYWGQGTLVTVSS VL: DVVMTQSPLSLPVTLGQPASISCRSSQSLVHSYGNTYLYWYQQRPGQSPRLLIYRVSNRFSGVPDRFSGSGSGTDFTLKISRVEAEDVGVYFCFQGTHVPYTFGGGTKVEIKR | – | 46.1 | 0.00709 | 154000 | 3.9 | 6.4 | 0.00085 | 133000 | – | –
HALB (antibody, human IgG4 S228P, kappa, V domains shown, humanized 18D5 variant; also called humanized 18D5 variant HALB) VH: EVQLVQSGAEVKKPGESLRISCKASGYTFTSYWVHWVRQMPGKGLEWIGNIDPSDSDTHYNQKFKDHVTLSVDKSISTAYLQLSSLKASDTAMYYCVRGGTGTMAWFAYWGQGTLVTVSS VL: DVVMTQSPLSLPVTLGQPASISCRSSQSLVHSYGNTYLYWFQQRPGQSPRLLIYRVSNRFSGVPDRFSGSGSGTDFTLKISRVEAEDVGVYYCFQGTHVPYTFGGGTKVEIKR | – | – | – | – | – | – | – | – | 2.53 | –

Continued, in another order:

EC50 [3] [ng/mL] | Kd [4] [nM] | koff [4] [s⁻¹] | kon [4] [M⁻¹ s⁻¹] | EC50 [5] [ng/mL] | Kd [7] [nM] | koff [7] [s⁻¹] | kon [7] [M⁻¹ s⁻¹] | EC50 [8] [ng/mL] | Binder | further results
4.13 | – | – | – | – | – | – | – | – | HELB (antibody, human IgG4 S228P, kappa, V domains shown, humanized 18D5 variant; also called humanized 18D5 variant HELB) VH: EVQLVQSGAEVKKPGESLRISCKASGYSFTSYWVHWVRQMPGKGLEWMGNIDPSDSDTHYSPSFQGHVTLSVDKSISTAYLQLSSLKASDTAMYYCVRGGTGTLAWFAYWGQGTLVTVSS VL: DVVMTQSPLSLPVTLGQPASISCRSSQSLVHSYGNTYLYWFQQRPGQSPRLLIYRVSNRFSGVPDRFSGSGSGTDFTLKISRVEAEDVGVYYCFQGTHVPYTFGGGTKVEIKR | –
– | – | – | – | – | – | – | – | 2.95 | HBLB (antibody, human IgG4 S228P, kappa, V domains shown, humanized 18D5 variant; also called humanized 18D5 variant HBLB) VH: EVQLVQSGAEVKKPGESLRISCKASGYSFTSYWVHWVRQMPGKGLEWMGNIDPSDSDTHYNQKFKDHVTLSVDKSISTAYLQLSSLKASDTAMYYCVRGGTGTMAWFAYWGQGTLVTVSS VL: DVVMTQSPLSLPVTLGQPASISCRSSQSLVHSYGNTYLYWFQQRPGQSPRLLIYRVSNRFSGVPDRFSGSGSGTDFTLKISRVEAEDVGVYYCFQGTHVPYTFGGGTKVEIKR | –
– | 52.4 | 0.0114 | 217000 | 7.1 | 12.4 | 0.00122 | 98300 | – | HEFLA (antibody, human IgG4 S228P, kappa, V domains shown, humanized 18D5 variant) VH: EVQLVQSGAEVKKPGESLRISCKASGYSFTSYWVHWVRQMPGKGLEWMGNIDPSDSDTHYSPSFQGHVTLSVDKSISTAYLQLSSLKASDTAMYYCVRGGTGTLAYFAYWGQGTLVTVSS VL: DVVMTQSPLSLPVTLGQPASISCRSSQSLVHSYGNTYLYWYQQRPGQSPRLLIYRVSNRFSGVPDRFSGSGSGTDFTLKISRVEAEDVGVYFCFQGTHVPYTFGGGTKVEIKR | Kd [2]: 0.264 nM; koff [2]: 0.000148 s⁻¹; kon [2]: 559000 M⁻¹ s⁻¹; IC50 [6]: 191 ng/mL
